The values that follow come from PMC10047360.

Data set [1] can be described thus: Western blot of overexpressed LRP6. The conditions noted are these: glycan changed form; control: wild-type HEK293T cells.
Data set [2] can be described thus: cell-surface HiBiT/LgBiT luminescence to mCherry ratio. The conditions noted are these: glycan changed form; control: HiBiT-LRP6-mCherry alone.

B1: LRP6: B3GnT2−/− (protein)
parent chain: MGAVLRSLLACSFCVLLRAAPLLLYANRRDLRLVDATNGKENATIVVGGLEDAAAVDFVFSHGLIYWSDVSEEAIKRTEFNKTESVQNVVVSGLLSPDGLACDWLGEKLYWTDSETNRIEVSNLDGSLRKVLFWQELDQPRAIALDPSSGFMYWTDWGEVPKIERAGMDGSSRFIIINSEIYWPNGLTLDYEEQKLYWADAKLNFIHKSNLDGTNRQAVVKGSLPHPFALTLFEDILYWTDWSTHSILACNKYTGEGLREIHSDIFSPMDIHAFSQQRQPNATNPCGIDNGGCSHLCLMSPVKPFYQCACPTGVKLLENGKTCKDGATELLLLARRTDLRRISLDTPDFTDIVLQLEDIRHAIAIDYDPVEGYIYWTDDEVRAIRRSFIDGSGSQFVVTAQIAHPDGIAVDWVARNLYWTDTGTDRIEVTRLNGTMRKILISEDLEEPRAIVLDPMVGYMYWTDWGEIPKIERAALDGSDRVVLVNTSLGWPNGLALDYDEGKIYWGDAKTDKIEVMNTDGTGRRVLVEDKIPHIFGFTLLGDYVYWTDWQRRSIERVHKRSAEREVIIDQLPDLMGLKATNVHRVIGSNPCAEENGGCSHLCLYRPQGLRCACPIGFELISDMKTCIVPEAFLLFSRRADIRRISLETNNNNVAIPLTGVKEASALDFDVTDNRIYWTDISLKTISRAFMNGSALEHVVEFGLDYPEGMAVDWLGKNLYWADTGTNRIEVSKLDGQHRQVLVWKDLDSPRALALDPAEGFMYWTEWGGKPKIDRAAMDGSERTTLVPNVGRANGLTIDYAKRRLYWTDLDTNLIESSNMLGLNREVIADDLPHPFGLTQYQDYIYWTDWSRRSIERANKTSGQNRTIIQGHLDYVMDILVFHSSRQSGWNECASSNGHCSHLCLAVPVGGFVCGCPAHYSLNADNRTCSAPTTFLLFSQKSAINRMVIDEQQSPDIILPIHSLRNVRAIDYDPLDKQLYWIDSRQNMIRKAQEDGSQGFTVVVSSVPSQNLEIQPYDLSIDIYSRYIYWTCEATNVINVTRLDGRSVGVVLKGEQDRPRAVVVNPEKGYMYFTNLQERSPKIERAALDGTEREVLFFSGLSKPIALALDSRLGKLFWADSDLRRIESSDLSGANRIVLEDSNILQPVGLTVFENWLYWIDKQQQMIEKIDMTGREGRTKVQARIAQLSDIHAVKELNLQEYRQHPCAQDNGGCSHICLVKGDGTTRCSCPMHLVLLQDELSCGEPPTCSPQQFTCFTGEIDCIPVAWRCDGFTECEDHSDELNCPVCSESQFQCASGQCIDGALRCNGDANCQDKSDEKNCEVLCLIDQFRCANGQCIGKHKKCDHNVDCSDKSDELDCYPTEEPAPQATNTVGSVIGVIVTIFVSGTVYFICQRMLCPRMKGDGETMTNDYVVHGPASVPLGYVPHPSSLSGSLPGMSRGKSMISSLSIMGGSSGPPYDRAHVTGASSSSSSSTKGTYFPAILNPPPSPATERSHYTMEFGYSSNSPSTHRSYSYRPYSYRHFAPPTTPCSTDVCDSDYAPSRRMTSVATAKGYTSDLNYDSEPVPPPPTPRSQYLSAEENYESCPPSPYTERSYSHHLYPPPPSPCTDSS
In the case of B1, in data set [1], the expression_or_secretion result is given as “increases”.

B2: LRP6: hB3GnT2 co-expression (protein)
parent chain: B1 parent chain
Take B2: in data set [2], the “localisation_or_trafficking, fold_change” value is listed as “increases”.
